Data reported in article PMC5066494, “Interaction between RNA helicase ROOT INITIATION DEFECTIVE 1 and GAMETOPHYTIC FACTOR 1 is involved in female gametophyte development in Arabidopsis” (Journal of Experimental Botany, 2016).

Target: T1, GST-tagged GFA1 (GST-GFA1) (Arabidopsis, UniProt Q9LNC5 1-987)
T1 construct: GAMETOPHYTIC FACTOR 1 (GFA1), Arabidopsis, full-length cDNA in pGEX-4T-1; also called pGEX-4T-GFA1; source: E. coli BL21 (DE3), purified (glutathione-Sepharose 4B)
T1 sequence (looked up): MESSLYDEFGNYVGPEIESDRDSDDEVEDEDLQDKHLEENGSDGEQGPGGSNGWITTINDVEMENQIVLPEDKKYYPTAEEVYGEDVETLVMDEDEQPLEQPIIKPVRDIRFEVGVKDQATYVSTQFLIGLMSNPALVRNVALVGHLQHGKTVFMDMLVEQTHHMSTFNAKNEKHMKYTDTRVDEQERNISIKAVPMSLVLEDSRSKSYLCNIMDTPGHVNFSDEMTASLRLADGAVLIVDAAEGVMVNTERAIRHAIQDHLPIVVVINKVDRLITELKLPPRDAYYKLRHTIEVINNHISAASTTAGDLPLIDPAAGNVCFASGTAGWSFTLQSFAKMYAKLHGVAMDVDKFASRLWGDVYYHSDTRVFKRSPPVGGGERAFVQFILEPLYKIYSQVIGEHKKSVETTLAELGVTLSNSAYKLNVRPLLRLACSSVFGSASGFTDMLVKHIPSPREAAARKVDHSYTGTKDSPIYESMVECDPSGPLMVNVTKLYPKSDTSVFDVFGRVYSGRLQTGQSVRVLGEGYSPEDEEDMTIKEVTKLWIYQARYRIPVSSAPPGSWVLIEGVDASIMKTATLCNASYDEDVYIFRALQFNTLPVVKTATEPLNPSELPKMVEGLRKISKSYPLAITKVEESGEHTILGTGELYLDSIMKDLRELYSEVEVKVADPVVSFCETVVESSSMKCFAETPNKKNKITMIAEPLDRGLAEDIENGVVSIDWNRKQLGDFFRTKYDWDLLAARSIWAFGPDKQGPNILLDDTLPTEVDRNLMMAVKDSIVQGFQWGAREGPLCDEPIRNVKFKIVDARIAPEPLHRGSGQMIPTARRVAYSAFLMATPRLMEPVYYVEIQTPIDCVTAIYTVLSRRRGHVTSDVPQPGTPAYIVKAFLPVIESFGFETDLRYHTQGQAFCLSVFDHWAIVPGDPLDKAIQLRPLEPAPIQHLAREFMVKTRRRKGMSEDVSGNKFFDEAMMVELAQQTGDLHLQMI
Test: pull-down; GST or GST-GFA1 on glutathione-Sepharose 4B beads, His-RID1 added, 4 °C 1–2 h; 50mM Tris-HCl pH 7.5, 100mM NaCl; wash with 150mM NaCl, 25mM imidazole; immunoblot with anti-HIS antibody
Details: both partners purified

B1: hexa-histidine-tagged RID1 (His-RID1) (natural protein, Arabidopsis, UniProt F4IE66 1-717, looked up)
chain: MPSMAQGELKSFVQNSRPNPKSPTVSPFSMRQKIAEHRRSLPIASVEKRLVEEVQKNDILIIVGETGSGKTTQLPQFLYNAGFCREGKMIGITQPRRIAAVTVAKRVAEECEVQLGQKVGYSIRFDDTTSGSTRLKYMTDGLLLREALLDPHLSRYSVIIVDEAHDRSVHTDVLLALLKKIQRTRSQPVSEKTEFGNVASQVQTTTRDANGPQQNGVLKGYQGRKLSPLKLIIMSASLDARVFSEYFGGAKAVHVQGRQFPVDILYTVHPESDYVDATLVTIFQIHFEEKPGDILVFLTGQDEIESVERLVQERLQNIPEDKRKLLPLAIFSALPSEQQMKVFAPAPTGFRKVILATNIAETSITIPGIRYVIDPGFVKARSYDPSKGMESLDVVPASKAQTLQRSGRAGREGPGKSFRLYPEREFEKLEDSTKPEIKRCNLSNIILQLKALGIDDIVGFDFIDKPSRGAIIKALAELHSLGALADDGKLENPVGYQMSRLPLEPVYSKALILANQFNCLEEMLITVAVLSVESIFYDPREKREEARTSKNHFASVEGDHLTYLSVYRESDEFLEKRKAAGSGNNIDKIMKKWCKENYVNSRSLKHARDIYRQIREHVEQIGFNVSSCGNDMLAFRRCLAASFFLKAAQRQLDGTYRALESGEVVHIHPTSVLFRAKPECVIFNELMQTSKKYIKNLTIIDSLWLSELAPHHFQTAE
notes: ROOT INITIATION … 1 (RID1), Arabidopsis, At1g26370, full-length cDNA in pET-28a-c(+); also called pET-28a-RID1; source: E. coli BL21 (DE3), purified (Ni Sepharose 6 Fast Flow)
- binding result: binds
